Assay results from the Human Domainome abundance scans (Beltran et al. 2025).
± gives the uncertainty stated by the source.

B1: Steroid hormone receptor ERR2, residues 100 to 176; numbered along this chain, O95718 (parent)
chain: KRLCLVCGDIASGYHYGVASCEACKAFFKRTIQGNIEYSCPATNECEITKRRRKSCQACRFMKCLKVGMLKEGVRLD

Variants of: B1
Assay: abundance fitness (aPCA) (normalised: wild type 0, dead -1); higher = more abundant; growth selection in yeast, the domain comes from the species named
Settings: Homo sapiens

Variant	abundance fitness
KRLCLVCGDIASGYHYGVASCPACKAFFKRTIQGNIEYSCPATNECEITKRRRKSCQACRFMKCLKVGMLKEGVRLD	-0.188 ± 0.071
KRLCLVCGDIASGYHYGVASCAACKAFFKRTIQGNIEYSCPATNECEITKRRRKSCQACRFMKCLKVGMLKEGVRLD	0.012 ± 0.046
KRLCLVCGDIASGYHYGVASCLACKAFFKRTIQGNIEYSCPATNECEITKRRRKSCQACRFMKCLKVGMLKEGVRLD	-0.233 ± 0.046
KRLCLVCGDIASGYHYGVASCTACKAFFKRTIQGNIEYSCPATNECEITKRRRKSCQACRFMKCLKVGMLKEGVRLD	-0.19 ± 0.061
KRLCLVCGDIASGYHYGVASCHACKAFFKRTIQGNIEYSCPATNECEITKRRRKSCQACRFMKCLKVGMLKEGVRLD	-0.091 ± 0.074
KRLCLVCGDIASGYHYGVASCVACKAFFKRTIQGNIEYSCPATNECEITKRRRKSCQACRFMKCLKVGMLKEGVRLD	-0.131 ± 0.048
KRLCLVCGDIASGYHYGVASCIACKAFFKRTIQGNIEYSCPATNECEITKRRRKSCQACRFMKCLKVGMLKEGVRLD	-0.459 ± 0.12
KRLCLVCGDIASGYHYGVASCFACKAFFKRTIQGNIEYSCPATNECEITKRRRKSCQACRFMKCLKVGMLKEGVRLD	-0.449 ± 0.12
KRLCLVCGDIASGYHYGVASCNACKAFFKRTIQGNIEYSCPATNECEITKRRRKSCQACRFMKCLKVGMLKEGVRLD	0.322 ± 0.068
KRLCLVCGDIASGYHYGVASCSACKAFFKRTIQGNIEYSCPATNECEITKRRRKSCQACRFMKCLKVGMLKEGVRLD	-0.154 ± 0.05
KRLCLVCGDIASGYHYGVASCQACKAFFKRTIQGNIEYSCPATNECEITKRRRKSCQACRFMKCLKVGMLKEGVRLD	-0.092 ± 0.058
KRLCLVCGDIASGYHYGVASCKACKAFFKRTIQGNIEYSCPATNECEITKRRRKSCQACRFMKCLKVGMLKEGVRLD	-0.443 ± 0.091
KRLCLVCGDIASGYHYGVASSEACKAFFKRTIQGNIEYSCPATNECEITKRRRKSCQACRFMKCLKVGMLKEGVRLD	-0.532 ± 0.077
KRLCLVCGDIASGYHYGVASGEACKAFFKRTIQGNIEYSCPATNECEITKRRRKSCQACRFMKCLKVGMLKEGVRLD	-0.866 ± 0.078
KRLCLVCGDIASGYHYGVASDEACKAFFKRTIQGNIEYSCPATNECEITKRRRKSCQACRFMKCLKVGMLKEGVRLD	-0.518 ± 0.3
KRLCLVCGDIASGYHYGVASLEACKAFFKRTIQGNIEYSCPATNECEITKRRRKSCQACRFMKCLKVGMLKEGVRLD	-0.625 ± 0.076
KRLCLVCGDIASGYHYGVASMEACKAFFKRTIQGNIEYSCPATNECEITKRRRKSCQACRFMKCLKVGMLKEGVRLD	-0.961 ± 0.15
KRLCLVCGDIASGYHYGVASYEACKAFFKRTIQGNIEYSCPATNECEITKRRRKSCQACRFMKCLKVGMLKEGVRLD	-0.89 ± 0.41
KRLCLVCGDIASGYHYGVASTEACKAFFKRTIQGNIEYSCPATNECEITKRRRKSCQACRFMKCLKVGMLKEGVRLD	-0.871 ± 0.14
KRLCLVCGDIASGYHYGVASNEACKAFFKRTIQGNIEYSCPATNECEITKRRRKSCQACRFMKCLKVGMLKEGVRLD	-1 ± 0.38
KRLCLVCGDIASGYHYGVASVEACKAFFKRTIQGNIEYSCPATNECEITKRRRKSCQACRFMKCLKVGMLKEGVRLD	-0.818 ± 0.09
KRLCLVCGDIASGYHYGVASWEACKAFFKRTIQGNIEYSCPATNECEITKRRRKSCQACRFMKCLKVGMLKEGVRLD	-0.94 ± 0.15
KRLCLVCGDIASGYHYGVASEEACKAFFKRTIQGNIEYSCPATNECEITKRRRKSCQACRFMKCLKVGMLKEGVRLD	-0.814 ± 0.11
KRLCLVCGDIASGYHYGVASQEACKAFFKRTIQGNIEYSCPATNECEITKRRRKSCQACRFMKCLKVGMLKEGVRLD	-1.01 ± 0.19

Variant	abundance fitness
KRLCLVCGDIASGYHYGVASREACKAFFKRTIQGNIEYSCPATNECEITKRRRKSCQACRFMKCLKVGMLKEGVRLD	-0.761 ± 0.075
KRLCLVCGDIASGYHYGVASIEACKAFFKRTIQGNIEYSCPATNECEITKRRRKSCQACRFMKCLKVGMLKEGVRLD	-0.693 ± 0.14
KRLCLVCGDIASGYHYGVASKEACKAFFKRTIQGNIEYSCPATNECEITKRRRKSCQACRFMKCLKVGMLKEGVRLD	-0.679 ± 0.11
KRLCLVCGDIASGYHYGVASFEACKAFFKRTIQGNIEYSCPATNECEITKRRRKSCQACRFMKCLKVGMLKEGVRLD	-1.04 ± 0.37
KRLCLVCGDIASGYHYGWASCEACKAFFKRTIQGNIEYSCPATNECEITKRRRKSCQACRFMKCLKVGMLKEGVRLD	-0.657 ± 0.094
KRLCLVCGDIASGYHYGMASCEACKAFFKRTIQGNIEYSCPATNECEITKRRRKSCQACRFMKCLKVGMLKEGVRLD	0.218 ± 0.42
KRLCLVCGDIASGYHYGQASCEACKAFFKRTIQGNIEYSCPATNECEITKRRRKSCQACRFMKCLKVGMLKEGVRLD	-0.375 ± 0.089
KRLCLVCGDIASGYHYGRASCEACKAFFKRTIQGNIEYSCPATNECEITKRRRKSCQACRFMKCLKVGMLKEGVRLD	-0.384 ± 0.07
KRLCLVCGDIASGYHYGPASCEACKAFFKRTIQGNIEYSCPATNECEITKRRRKSCQACRFMKCLKVGMLKEGVRLD	-0.331 ± 0.078
KRLCLVCGDIASGYHYGYASCEACKAFFKRTIQGNIEYSCPATNECEITKRRRKSCQACRFMKCLKVGMLKEGVRLD	-0.663 ± 0.14
KRLCLVCGDIASGYHYGLASCEACKAFFKRTIQGNIEYSCPATNECEITKRRRKSCQACRFMKCLKVGMLKEGVRLD	-0.613 ± 0.071
KRLCLVCGDIASGYHYGHASCEACKAFFKRTIQGNIEYSCPATNECEITKRRRKSCQACRFMKCLKVGMLKEGVRLD	-0.245 ± 0.1
KRLCLVCGDIASGYHYGVPSCEACKAFFKRTIQGNIEYSCPATNECEITKRRRKSCQACRFMKCLKVGMLKEGVRLD	-0.065 ± 0.074
KRLCLVCGDIASGYHYGVMSCEACKAFFKRTIQGNIEYSCPATNECEITKRRRKSCQACRFMKCLKVGMLKEGVRLD	-0.117 ± 0.055
KRLCLVCGDIASGYHYGVQSCEACKAFFKRTIQGNIEYSCPATNECEITKRRRKSCQACRFMKCLKVGMLKEGVRLD	-0.113 ± 0.057
KRLCLVCGDIASGYHYGVKSCEACKAFFKRTIQGNIEYSCPATNECEITKRRRKSCQACRFMKCLKVGMLKEGVRLD	-0.135 ± 0.055
KRLCLVCGDIASGYHYGVCSCEACKAFFKRTIQGNIEYSCPATNECEITKRRRKSCQACRFMKCLKVGMLKEGVRLD	-0.41 ± 0.1
KRLCLVCGDIASGYHYGVRSCEACKAFFKRTIQGNIEYSCPATNECEITKRRRKSCQACRFMKCLKVGMLKEGVRLD	-0.331 ± 0.041
KRLCLVCGDIASGYHYGVWSCEACKAFFKRTIQGNIEYSCPATNECEITKRRRKSCQACRFMKCLKVGMLKEGVRLD	-0.307 ± 0.057
KRLCLVCGDIASGYHYGVLSCEACKAFFKRTIQGNIEYSCPATNECEITKRRRKSCQACRFMKCLKVGMLKEGVRLD	-0.046 ± 0.041
KRLCLVCGDIASGYHYGVFSCEACKAFFKRTIQGNIEYSCPATNECEITKRRRKSCQACRFMKCLKVGMLKEGVRLD	-0.326 ± 0.14
KRLCLVCGDIASGYHYGVISCEACKAFFKRTIQGNIEYSCPATNECEITKRRRKSCQACRFMKCLKVGMLKEGVRLD	-0.464 ± 0.14
KRLCLVCGDIASGYHYGVNSCEACKAFFKRTIQGNIEYSCPATNECEITKRRRKSCQACRFMKCLKVGMLKEGVRLD	0.005 ± 0.085
KRLCLVCGDIASGYHYGVVSCEACKAFFKRTIQGNIEYSCPATNECEITKRRRKSCQACRFMKCLKVGMLKEGVRLD	0.035 ± 0.038

Variant	abundance fitness
KRLCLVCGDIASGYHYGVYSCEACKAFFKRTIQGNIEYSCPATNECEITKRRRKSCQACRFMKCLKVGMLKEGVRLD	-0.223 ± 0.092
KRLCLVCGDIASGYHYGVTSCEACKAFFKRTIQGNIEYSCPATNECEITKRRRKSCQACRFMKCLKVGMLKEGVRLD	-0.085 ± 0.056
KRLCLVCGDIASGYHYGVSSCEACKAFFKRTIQGNIEYSCPATNECEITKRRRKSCQACRFMKCLKVGMLKEGVRLD	0.049 ± 0.045
KRLCLVCGDIASGYHYGVDSCEACKAFFKRTIQGNIEYSCPATNECEITKRRRKSCQACRFMKCLKVGMLKEGVRLD	0.046 ± 0.067
KRLCLVCGDIASGYHYGVESCEACKAFFKRTIQGNIEYSCPATNECEITKRRRKSCQACRFMKCLKVGMLKEGVRLD	0.043 ± 0.05
KRLCLVCGDIASGYHYGVAECEACKAFFKRTIQGNIEYSCPATNECEITKRRRKSCQACRFMKCLKVGMLKEGVRLD	-0.232 ± 0.051
KRLCLVCGDIASGYHYGVAVCEACKAFFKRTIQGNIEYSCPATNECEITKRRRKSCQACRFMKCLKVGMLKEGVRLD	0.34 ± 0.039
KRLCLVCGDIASGYHYGVAKCEACKAFFKRTIQGNIEYSCPATNECEITKRRRKSCQACRFMKCLKVGMLKEGVRLD	-0.218 ± 0.059
KRLCLVCGDIASGYHYGVAMCEACKAFFKRTIQGNIEYSCPATNECEITKRRRKSCQACRFMKCLKVGMLKEGVRLD	-0.322 ± 0.066
KRLCLVCGDIASGYHYGVAGCEACKAFFKRTIQGNIEYSCPATNECEITKRRRKSCQACRFMKCLKVGMLKEGVRLD	0.282 ± 0.032
KRLCLVCGDIASGYHYGVAACEACKAFFKRTIQGNIEYSCPATNECEITKRRRKSCQACRFMKCLKVGMLKEGVRLD	0.353 ± 0.038
KRLCLVCGDIASGYHYGVAFCEACKAFFKRTIQGNIEYSCPATNECEITKRRRKSCQACRFMKCLKVGMLKEGVRLD	-0.485 ± 0.12
KRLCLVCGDIASGYHYGVAPCEACKAFFKRTIQGNIEYSCPATNECEITKRRRKSCQACRFMKCLKVGMLKEGVRLD	-0.321 ± 0.079
KRLCLVCGDIASGYHYGVAWCEACKAFFKRTIQGNIEYSCPATNECEITKRRRKSCQACRFMKCLKVGMLKEGVRLD	-0.052 ± 0.047
KRLCLVCGDIASGYHYGVANCEACKAFFKRTIQGNIEYSCPATNECEITKRRRKSCQACRFMKCLKVGMLKEGVRLD	0.131 ± 0.077
KRLCLVCGDIASGYHYGVARCEACKAFFKRTIQGNIEYSCPATNECEITKRRRKSCQACRFMKCLKVGMLKEGVRLD	-0.381 ± 0.048
KRLCLVCGDIASGYHYGVAYCEACKAFFKRTIQGNIEYSCPATNECEITKRRRKSCQACRFMKCLKVGMLKEGVRLD	-0.109 ± 0.12
KRLCLVCGDIASGYHYGVATCEACKAFFKRTIQGNIEYSCPATNECEITKRRRKSCQACRFMKCLKVGMLKEGVRLD	0.346 ± 0.047
KRLCLVCGDIASGYHYGVALCEACKAFFKRTIQGNIEYSCPATNECEITKRRRKSCQACRFMKCLKVGMLKEGVRLD	-0.185 ± 0.048
KRLCLVCGDIASGYHYGVADCEACKAFFKRTIQGNIEYSCPATNECEITKRRRKSCQACRFMKCLKVGMLKEGVRLD	-0.218 ± 0.094
KRLCLVCGDIASGYHYGVAICEACKAFFKRTIQGNIEYSCPATNECEITKRRRKSCQACRFMKCLKVGMLKEGVRLD	0.26 ± 0.075
KRLCLVCGDIASGYHYGVAQCEACKAFFKRTIQGNIEYSCPATNECEITKRRRKSCQACRFMKCLKVGMLKEGVRLD	-0.007 ± 0.055
KRLCLVCGDIASGYHYGVACCEACKAFFKRTIQGNIEYSCPATNECEITKRRRKSCQACRFMKCLKVGMLKEGVRLD	0.414 ± 0.047
